The nature of the data set: soluble on expression in E. coli; label from the status in PepcDB or PDB records.
On to “MPRDVQVLPIATNTKVLRARSWSRLRFEIEYALERGTTSNSYVIEGDKTAIIDPPVESFMKIYLEALQQTVNLKKLDYVILGHFSPNRIPTFKALLELAPQITFVCSLPAAGDLRAAFPDDNLNILPMRGKETLDLGKGHVLKFLPIPSPRWPAGLCTYDVQTQILYTDKIFGAHICGDDVFDDNWESFKEDQRYYFNCLMAPHAIHVEAALEKISDLQVRLYAVGHGPLVRTSLIALTQAYADWSKAQKDREISVALLYASAYGNTATIARAIALGLTKGGVAVKSINCEFATPEEIQTNLEQVDGFLIGSPTIGGHAPTPINTALGIVLKVGDNNKLAGVFGSYGWSGEALDMIEGKLRDAGYRFGLDTLKVKFKPDDVTLKFCEEVGTDFAQTLKKAKKVRVPQQAATPVEQAVGRIVGSVCVITAKQGDVSTGMLGSWVSQATFNPPGLTVAIAKERAIESLMYPGGKFALNILSEGNHLEYMKHFRKNFAPGEDRFANFTTTEADNGCTVLADALAYVECSVDQRLECGDHWVVYATVDNGKLLKPDDVTAINHRKTGNHYLEHHHHHH”, for which the “soluble on expression in E. coli” value is recorded as “not soluble”.

Take “MSLSSVRDKYNFNSEWLLYVGDTPEAKEVRFQDTDWKKVTLPRPFNEDEAFRLSIEQLTDTVMWYRKHFRLPADSKNKKVFVEFEGVRQGADFYINGEYIGLHENGAMAVGFDLTPYIKYGQENVMAVRIDNNWNYKERATGTKYQWSDRNFNANYGGIPKNVWLHVTDKLYQTLPLYSNLKTTGVYIYAEDIRVKSRKAVVHAESEIKNEYNRDKKVAYKVEVFDRDGKSIKSFEGTQTVVKPGETATLEASAEIDGLHFWSWGYGYLYTVKTSLWVDGRKVDEVATRTGFRKTRFGKGMIWLNDRVIQMKGFAQRTSNEWPGVGMSVPAWLSDYSNGLMVEDNANLVRWMHITPWKQDIESCDRVGLIQAMQAGDAEKDREGRQWEQRTELMRDAIIYNRNNPSILFYECGNESISREHMIEMKAIRDKYDPHGGRAIGSREMLDIREAEYGGEMLYINKSKHHPMWAMEYCRDEGLRKYWDEYSYPYHKNGEGNNSFRSAMTNKVQKKVDARAYNHNQDSFTIENVIRWFDYWRERPGTGDRVSSGGVKIIFSDTNTHYRGVENYRRSGVTDAMRIPKDPFYAHQVMWDGWVDIENPRIHIVGHWNYKEDVVKPVYVVSSAEKVELFLNGKSLGNGQRDYHFLYTFKDVAFVPGKLEAVGYDKNGKECCRAELQTAGKPEQIKLSVIQSPKGWKADGADMVLLQVEVMDKDGRRCPLANDLIHFDVEGPAEWRGGIAQGKDNYILSKDLPVECGINRALIRSLTTPGAVRITAKADGLQSAEISLSSAPVEVKNGLSNYIPGDELEGRLTRGETPLTPSYKDTKVDVNILSAVAGANQDETIKSFDDNELSEWKNDGRLNSAWITYSLERAARVDEICMKLTGWRLRSYPLEIYAGDELIWSGETEKSLGYIHLNVKPVLTNEITIRLKGASKEGDGFGQIVEVAAPAAGELDLFKAKNGDKTNHELRIVEIEFKENLWQEGHHHHHH”: the “soluble on expression in E. coli” value was “soluble”.

Regarding “MSLELTVFSIGDWGEKTECLVNVTTKMGSLESAMNPKFIISVGDNFYQRGVKSVEDAAWTEILEEPFGKLSKHLKVHSCLGDHDWRGSTTAQIDRTNYANNTRWYLPGYWWYEKVTFTSEVSLPSLFEKSGLGEISANNSFHFNSSKTENSTSCEIDCLDEIVDNLNTMVNRNNSWNEDLSYKTSISEYFSEKQVNSTAVFIYIDSWTLTQDPFKKTSISYKYSQLEFIEQTLKAAVFENVDWIILVTHYSIYSSGLHGPHTRLASILMPLIKKYRVDFIISGHDHHSEILVPEDFNSYFQIVGASSKEGHHHHHH”, the “soluble on expression in E. coli” value is given as “soluble”.

With “MVVVTGREPDSRRQDGAMSSSDAEDDFLEPATPTATQAGHALPLLPQEFPEVVPLNIGGAHFTTRLSTLRCYEDTMLAAMFSGRHYIPTDSEGRYFIDRDGTHFGDVLNFLRSGDLPPRERVRAVYKEAQYYAIGPLLEQLENMQPLKGEKVRQAFLGLMPYYKDHLERIVEIARLRAVQRKARFAKLKVCVFKEEMPITPYECPLLNSLRFERSESDGQLFEHHCEVDVSFGPWEAVADVYDLLHCLVTDLSAQGLTVDHQCIGVCDKHLVNHYYCKRPIYEFKITW”, the “soluble on expression in E. coli” value is given as “soluble”.

Regarding “MGDRFDSARHRVEAAAIKAFAGEFDPQPFHLDEEAARHSLFGGLAASGWHTAAITMRLLVTSGLPLAQGIIGAGTELSWPNPTRPGDELHVETTVLAITPSKSRPDRAIVTCQSDTLNQRGEVVQRSTAKVVVFRRPLEHHHHHH”, the “soluble on expression in E. coli” value is “not soluble”.

With “MAGQEDPVQREIHQDWANREYIEVITSSIKKIADFLNSFDMSCRSRLATLNEKLTALERRIEYIEARVTKGETLT”, the “soluble on expression in E. coli” value is reported as “soluble”.

Consider “MSLELENFQEYNDPVLYDKENRYTGDIPFLLKWAGKVDGTIVDLACGTGRATIPLASKGYKLMGVDVHKGMLEAAREKSSRLNLPIEWIKQDCTKLSLNLMSPFIYSVGNVFQHFLTNEEQDSFLTSVNKHLKESGIFIFDTRFPSKEELLQPNTEEYWKSYQDTDTGQKVDVYTISQYDPLTQIQHYTMIRKSVNAEGLAVNEKRTNIRLRYVFPKEMERLLSANGFEIIDVYQDWQETPLTRDSDQMIYVCKKSSEGHHHHHH”, for which the “soluble on expression in E. coli” value was “soluble”.

Consider “GHMKLKTKTMEWSGNSLKLLDQRKLPFIEEYVECKTHEEVAHAIKEMIVRGAPAIGVAAAFGYVLGLRDYKTGSLTDWMKQVKETLARTRPTAVNLFWALNRMEKVFFENADRENLFEILENEALKMAYEDIEVNKAIGKNGAQLIKDGSTILTHCNAGALATVDYGTALGVIRAAVESGKRIRVFADETRPYLQGARLTAWELMKDGIEVYVITDNMAGWLMKRGLIDAVVVGADRIALNGDTANKIGTYSLAVLAKRNNIPFYVAAPVSTIDPTIRSGEEIPIEERRPEEVTHCGGNRIAPEGVKVLNPAFDVTENTLITAIITEKGVIRPPFEENIKKILEVGS”, for which the “soluble on expression in E. coli” value is “soluble”.

“RTLGEVWKERLNQMTKEEFTRYRKEAIIEVDRSAAKHARKEGNVTGGHPVSRGTAKLRWLVERRFLEPVGKVIDLGCGRGGWCYYMATQKRVQEVRGYTKGGPGHEEPQLVQSYGWNIVTMKSGVDVFYRPSECCDTLLCDIGESSSSAEVEEHRTIRVLEMVEDWLHRGPREFCVKVLCPYMPKVIEKMELLQRRYGGGLVRNPLSRNSTHEMYWVSRASGNVVHSVNMTSQVLLGRMEKRTWKGPQYEEDVNLGSGTRAV”: the “soluble on expression in E. coli” value was “soluble”.

In the case of “MSLCQEKEQDIQKEISYAEKHNNQRRIEGLNKALSEVRANCTDSKLRAEHQKKIAEQKEEVAERQRDLAEAKAKGDADKIDKRERKLAEAQDELKKLEHHHHHH”, the “soluble on expression in E. coli” value is “not soluble”.

As to “MDNTRIMAAREAGVKVEANVHNFNDRLSSKERIRFKHDGIEPQTWGEAIQLRIRKQETQKGVPEGWSKRFPNGSIYDVKVLRK”, the “soluble on expression in E. coli” value was “not soluble”.

Turning to “MSGLVLGQRDEPAGHRLSQEEILGSTKVVSQGLEALHSEHQAVLQSLSHTIECLQQGGHEEGLVHEKARQLRRSMENIELGLSEAQVMLALASHLSTVESEKQKLRAQVRRLCQENQWLRDELAGTQQRLQRSEQAVAQLEEEKKHLEFLRQLRQYDEDGHGMEEKEGEATKDSLDDLFPNEEEEDSGNDLSRGQGAAAAQQGGYEIPARLRTLHNLVIQYAAQGRYEVAVPLCKQALEDLERTSGRGHPDVATMLNILALVYRDQNKYKEAAHLLNDALSIRESTLGRDHPAVAATLNNLALLSVWGWPTGLPCPGLFYPLLPHYRSTYFTVSLINEPGNI”, the “soluble on expression in E. coli” value is on record as “soluble”.

“MKTEEMKFINESEFKKLKHYFEQKNTTSSLVLLVALTTGGRFSEIAKLKREDLDIKNNKIHLRGTKTETSDRIISIDTVTMKRIQSFIDSRPTNISGYIFTVDGKTITNAAVNKVLRKACANLNIKEITIHSLRHSFCSILIHHGFSILYISKHLGHSNPATTQSIYSHLLEHHHHHH”: the “soluble on expression in E. coli” value is given as “soluble”.

As to “MSLTKIAKVIVDVPLMQTDKPFSYKIPEALLSVITAGSRVHVPFGKGNRLLQGFVVSVDSGSAQHLKTIIDVLDVEPVLNQEQLELADQMRKTVFSYKISILKSMIPNLLNSNYDRLLKPKKGLSQEEKDLIFAGKKQINFSQLNQEIQTKSLSLIQAGKIDIEYLAKDRKTIKTQKCYDVNLEKLSHLLINKRAKKRQELKDYLANHPQSGPLSDLYRLFSREVVHYFIKEAVLNISQVEVNRTQSYFENIIQSDFLDLNPEQQTAVEQITAAIGSSNKPYLLEGITGSGKTEVYLHVIDQTLKLGKTAIVLVPEISLTPQMTSRFISRFGSQVAIMHSGLSDGEKFDEWRKMKSNQAKVVVGARSAIFSPLKNIGAIIIDEEHEATYKQESSPRYHAREVALLRAQYHQAVLVLGSATPSIESRARASRGVYNFLQLSQRANPQAHIPKVKIVDFRDYIGQQKVSNLTPVLLDKIKDRLIKKEQVVLMLNRRGYSSFIMCRDCGYVDNCPNCDISLTLHMDTKTMNCHYCGFLKGIPYNCPNCQSRQIRYYGTGTQKAYDELKQVLPEARILRMDVDTTKRKGAHEKILTKFGRHEADILLGTQMIAKGLDFPNVTLVGVLNADTSLNLPDFRSSERTFQLLTQVAGRAGRANKPGEVLIQTYNPNHYAIQLAREQDYEAFYRYEMRIRKALSYPPYYFTVGLTLSHKDEQEVIKKSYEIVTLIKEGLTDKIKILGPTPKPVARTHNLYHYQIIIKYRFEDQLEIVLNHILDLTQAKENKKLRLIIDHEPQSEGHHHHHH”, the “soluble on expression in E. coli” value was “soluble”.

On to “MAKGVAVLSSSEGVAGTILFTQEGDGPTTVTGNISGLKPGLHGFHVHALGDTTNGCMSTGPHFNPAGKEHGSPEDETRHAGDLGNITVGDDGTACFTIVDKQIPLTGPHSIIGRAVVVHADPDDLGKGGHELSKSTGNAGGRIACGIIGLQG”, for which the “soluble on expression in E. coli” value is recorded as “soluble”.

For the sequence “MGSDKIHHHHHHMDSNYTKAGYLTEPFKIFHLRDEHKLNIDFHYHDFHKILIHLHGNVSYCIEGRSYELKEHDIVLVNAGEVHKPILNDDSIYERIIIYVSQQLIDDYVSKGYDLACCFKQAYANQSHVLRLAATKGSRLADTIKGLDSTLRETNEYANELYQKLLFLEFLIQLNRITLHGGIEYINTFSSNKKIVEILDFLNKNLTNRISIDELADKFYMSRYHLMHTFKEETGCTIGSYITTKRLLLARDMIRDGSSVSAACDACGFGSYSSFIRAYRKQFHSTPTNT”, the “soluble on expression in E. coli” value is “not soluble”.

On to “MGHHHHHHSHMSENELSAEDTAFLEKAFELAQEALDEDEVPVGCVFVVNGTEIGRGRNRVNETGDPTRHAEMVAVTEMWKEHGTGCEDLLKKSTLYVSLEPCIMCSSAMYQLGIRKMVYGAENPRFGGVRSVGSAEKYRMEDNVQIVAGIWSERSVAMLKTFYEKLNPFAPPEKRKTKKPKLDEIK”, for which the “soluble on expression in E. coli” value is “not soluble”.

“AWQAAVASNEPFGEAQLAQRIRRYLPEQGQLFVGNSLVVRLIDALAQLPAGYPVYSNRGASGIDGLIATAAGVQRASARPTLAIVGDLSALYDLNSLALLRQASAPLVLIVVNNNGGQIFSMLPTPQDERRQFYLMPQDVDFSHAAVMFGLAYHRPDDWPSLDEALAGAWRRAGATVIELAVNETDG”: the “soluble on expression in E. coli” value is “not soluble”.

On to “MKPMTQEPSTLYAKLLGETASITWTELQPFFAKGALLWVELPLDLIEVAEAVAENDAARVSAWLADGQVGKVSETKALELVETDPQLWAVVVAPWVLIQNRANV”, for which the “soluble on expression in E. coli” value was “not soluble”.

As for “MGVFLFDRDCRYTVAGGGEISSAGLTPADFEGSKPHDLFSEAIADELEHYYREALDGHSHSFEQQYRGKHYRVQTVPVRDDNGEVISGLAVSEDVTARRERQRTLERQNERLREFAGVVSHDLRNPLNVAQGRLKLARAECDSEHLDNVAAAIERSNRLIDDLLTLASSGDEVTETASLDLGAVVDGCWQNVPTDGATLVVRSEQTVVADRGRLEQLLENLVRNAVEHAFPQSEVSLDAAEGDASDLTVTVGALEDGFYVEDTGPGIPPEERDDVFKGGYSTAADGTGFGLRIVRQIAEAHGWTVTVADGEHGGARFEVRGIETT”, the “soluble on expression in E. coli” value is listed as “not soluble”.

Source of the values: the DeepSol protein solubility set.
